Measured values as given in the nanobody polyreactivity screen of Harvey et al. (2022).

Assay: yeast display, Sf9 membrane polyspecificity reagent, FACS + sequencing; frameworks hold sequencing errors
How it was run: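 Synthetic nanobody libraries on Saccharomyces cerevisiae BJ5465 were galactose-induced for 36–48 hours, stained 1 hour at 4 °C with 10% biotinylated, detergent-solubilized Sf9 membrane reagent and enriched on streptavidin microbeads. FACS then separated cells into low and high (top ~1%) gates by anti-HA (expression) and streptavidin (reagent binding) fluorescence. Genes were colony-PCR amplified, MiSeq 2 × 250 sequenced and CDR-length filtered. A clone's polyreactivity label is that of its gate of origin.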
With “QVQLVESGGGLVQAGGSLRLSCAASGSTFGVNAMGWYRQAPGKERELVAAISWSGGSTYYADSVKGRFTISRDNAKNTVYLQMNSLKPEDTAVYYCAADFDYGIWGRYEYWGQGTQVTVSS” the “polyreactivity (PSR sort gate)” value was “high polyreactivity”. For “QVQLVESGGRLVQAGGSLRLSCAASGGTFVVYAMGWYSQARGKARELGAAITWIGDSTYYADSVKGRFTISRDNAKNTVYLQMNSLKPEDTAVYYCNAEGGYYLTEYGYWGQGTQETVSS”, the “polyreactivity (PSR sort gate)” value was “low polyreactivity”. With “QVQLVESGGGLVQAGGSLRLSCAASGSTFFIYAMGWYRQAPGKERELVATITKRGGRTYYADSVKGRFTISRDNAKNTVYLQMNSLKPEDTAVYYCAKDLWAVYLPGYDYWGQGTQVTVSS” the “polyreactivity (PSR sort gate)” value was “low polyreactivity”. For “QVQLVESGGGLVQAGGSLRLSCAASARIIFRNAMGWYRQAPGKERELVAAITYSGGSTYYADSVKGRFTISRDNAKNTVYLQMNSLKPEDTAVYYCGAGYWFCYSRVTRYDYWGQGTQVTVSS”, the “polyreactivity (PSR sort gate)” value was “high polyreactivity”. With “QVQLVESGGGLVQAGGSLRLSCAASGRILSSYAMGWYRKAPGKERELVAVISSGGNTYYADSVKGRFTISRDNAKNTVYLQMNSLKPEDTAVYYCAAVRHRQTYTKYNYWGQGTKVTVSS” the “polyreactivity (PSR sort gate)” value was “high polyreactivity”. In the case of “QVQLVESRGGLVQAGGSLRLRCAASGRIIIAYMAWYRQAPGKERELVAAIDSGASTYYADSVKGRFTISRDNAKNNVYLQMNSLIAEDTAVYYCASDVVYDYGGMDYWGQGTQVTVSS”, the “polyreactivity (PSR sort gate)” value is reported as “low polyreactivity”. For “QVQLVESGGGLVQAGGSLRLSCAASARIFVINAMGWYRQAPGKERELVADITWSGGSTYADSVKGRFTISRDNAKNTVYLQMYSLKPEDTAVYYCAAVTFVPRSTNGISLYDYWGQGTQVTVSS”, the “polyreactivity (PSR sort gate)” value was “high polyreactivity”. For “QVQLVESGGGLVQAGGSLRLSCAASGRIFDWNTMGWYRQAPGKERELVAAISYDGSTYYADSVKGRFTISRDNAKNTVYLQMNSLKPEDTAVYYCNAYPLTQYFAQGYDYWGQGTQVTVSS”, the “polyreactivity (PSR sort gate)” value was “low polyreactivity”. In the case of “QVQLVESGGGLVQAGGSLRLSCAASGSIFSYAMGWYRQAPGKERELVAAISRRGGRTYYADSVKGRFTISRDNEKYTVYLQMNSLKPEDTAVYYCAASGRNRKDGLYEYYYWGQGTQVTVSS”, the “polyreactivity (PSR sort gate)” value is reported as “high polyreactivity”. In the case of “QLQLVESGGGLVQAGGSLRLSCAASGFIFGLYDMGWYREATGKERELVAAISWSGGSTYYADSVKGRFTISRDNAKNTVYLQMNSLKPADTAVYYCNKDLYADGQYNYDYWGLGTQVTVSS”, the “polyreactivity (PSR sort gate)” value is reported as “low polyreactivity”. With “QVQLVESGGGLVQAGGSLRLSCAASGFIFAYYALGWYRQAPGKERELVAAITWSGGRTYYADSVKGRFTISRDNAKNTVYLQMNSLKPEDTAVYYCNAVRPSVDYGYWGQGTQVTVSS” the “polyreactivity (PSR sort gate)” value was “high polyreactivity”. In the case of “QVQLVESGVGLVQAAGSLRLSCAASGSTFSSYAMGWYRQAPGKERELVAVISSRGSRTYYADSVKGRFTNSRDNAKNSVYLLMNSLKPEDTAVYYCAARAVKQYGNSYESWGQGTQVTVSS”, the “polyreactivity (PSR sort gate)” value is reported as “high polyreactivity”. With “QVQLVESGGGLVQAGGSLRLSCAASGRNFYVYAMGWYRQAPGKEREFVASITVSGSSTYYADSVKGRFTISRDNAKNTVYLQMNSLKPEDTAVYYCNTDAVRSYVWWGTSLYDYWGQGTLVTVSS” the “polyreactivity (PSR sort gate)” value was “low polyreactivity”. With “QVQLVESGGGLVQAGGSLRLSCAASGYTFVYNAMGWYRQAPGKEREFVAAITWSGTSTRYADSVKGRFTISRDNAKYTVYLQMKSLKPEDTAVYYCAARRRSAQSGSYNHWGQGTQVTVSS” the “polyreactivity (PSR sort gate)” value was “high polyreactivity”. In the case of “QVQLVESGGVLVQAGGSLRLTCAASGRIFQNYAMGWYRQAPAKERELDATISSGVSTYYADSVKGRFTISRDNAKNTVYLQMNSLKPEDTAVYYCAAYVPWFEMDYWGQGTQVTVSS”, the “polyreactivity (PSR sort gate)” value is reported as “low polyreactivity”. In the case of “QVQLVESGGGLVQAGGSLRLSCAASGSTFTLNTMGWYRQAPGKERELVAGIRSGGSTYYADSVKGRFTISRDNAKNTVYLQMHSLKPEDTAVYYCAADRRWFAYWFDYWGQGTQVTVSS”, the “polyreactivity (PSR sort gate)” value is reported as “low polyreactivity”. With “QVQLVESGGGLVQAGGSLRLSCAASGLTFSRYAMGWYRQAPGKERELVAAITWSGSSTYYADSVKGRFTISRDNAKNTVYLQMNILKQEDTAVYYCAARYGYSRGPYYRSDYWGQGTQVTVSS” the “polyreactivity (PSR sort gate)” value was “high polyreactivity”. In the case of “QVQLVESGGGLVQAGGSLRLSCAASGIIFTGYAMGWYRQAPGKERELVAAISESGGSTYYADSVKGRFTISRDNAKNTVYLQMNSLKPEDTAVDYCAVDALSITYGYWGQGTQVTVSS”, the “polyreactivity (PSR sort gate)” value is reported as “low polyreactivity”. In the case of “QVHLVESGGGLVQAGGSLRLSCPASGITFEHNAMGWYRQSPGKERELVAAIRWSGGSTYYADSVKGRFTISRDYAKYTVYLQMNSLKPEDTAVYYCAAYKPSTRRYDYWGQGTQVTVSS”, the “polyreactivity (PSR sort gate)” value is reported as “high polyreactivity”. With “QVQLVESGLGLVQEGGCLRVSCAASGSIFSHYAMGWDSQAPGKDREVVAAITGGGITYYADSVKGRFTISRDNAKNTVYLQMNSLIPEDTAVYYWATDSLIFTIFDYSGQGTQVTVSS” the “polyreactivity (PSR sort gate)” value was “low polyreactivity”. In the case of “QVQLVESVVGLVQAGGSLLLSCDASGGIFLRYAMGSYRQAPGKERELVARISNRGGSTYYADSVKGRFTISRDYAKNTVYLQMNSLKPEDTAVYYCAADRWSSSRGDYWGQGTQVTVSS”, the “polyreactivity (PSR sort gate)” value is reported as “low polyreactivity”. With “QVQLVESGGGLVQAGGSLRLSCASSGITFPFYTMGWYRQAPGKERELVAAISSRGTSTYYADSVKGRFTISRDNAKNTVYLQMNSLKPEDTAVYYCKARATPQRAYDSWGQGTQVTVSS” the “polyreactivity (PSR sort gate)” value was “high polyreactivity”. In the case of “QVQLVESGGGLVQAGGSLRLSCAASGSIIRWNAMGWYRQAPGKERELVAAITGGGGNTYYSDSVKGRFTISRDNAKNTVYLQMNSLKPEDTAVYYCNVVYRNYRNDYWGQGTQVTVSS”, the “polyreactivity (PSR sort gate)” value is reported as “high polyreactivity”. With “QVQLVESGGGLVQAGGSLRLSCAASGIIFTPYTMGWYRQAPGKERELVAAITGSGGSTYYADSVKGRFTISRDNAKNTVYLQMNSLKPEDTAVYYCAAYKQYRFYRYDYWGQGTQVTVSS” the “polyreactivity (PSR sort gate)” value was “high polyreactivity”. With “QVQLVESGGGLVQAGGSLRLSCAASGSTFEYNAMGWYRQAPGKERELVASSTNYADSVKGRFTISRDNAKNTVYLQMNSLKPVDTAVYYCAREQGVNRNHDYWGQGTQLTVSS” the “polyreactivity (PSR sort gate)” value was “low polyreactivity”. In the case of “QVQLVESGGGLVQAGGSLRLSCAASGSIFNLYAMGWYRQAPGKERELVAGIRWSGGRTYYADSVKGRFTISRDNAKNTVYLQMNSLKPEDTAVYYCNAGGYLSWWNDYDYWGQGTQVTVSS”, the “polyreactivity (PSR sort gate)” value is reported as “high polyreactivity”. With “QVQLVESGGGLVQAGGSLRLSCAASGLTFTNYAMGWYRQAPGKELELVAAISSSGSDTYYADSVKGRFTISRDNAKNTVYLQMNSLKPEDTAVYYCAAVLTALSPDFEYEYWGQGTQVTVSS” the “polyreactivity (PSR sort gate)” value was “low polyreactivity”. With “QVQLVESGGGLVQAGGSLRLSCAASGLTFIRYAMGWYRQAPGKERELVASISRGGSTYYADSVKGRVTISRDNAKNTVYLQMNSLKPEDTAVYYCAAQHVGHNYYNSGFYYWGQGTQVTVSS” the “polyreactivity (PSR sort gate)” value was “low polyreactivity”. With “QVQLVESGGGLVQAGGSLRLSCAASGIIFSYYAMGWYRPEHGKEREFVAVITTGGGSTSYADSVKGRFTISRDNAKNTVYLQMNSLKPEDTAVYYCTAGHLGLDGIQDGVDYWGQGTQVTVSS” the “polyreactivity (PSR sort gate)” value was “low polyreactivity”. With “QDQLVESGGGLDQAGGSLRLSCAASGRIFDVYAMGWYRQAPGKERELVAAISWSGSSTYYADSVKGRFTISRDNAKNTVYLQMNSLKPEDTAVYSCATVLRVTRVDYWGQGTQVTVSS” the “polyreactivity (PSR sort gate)” value was “high polyreactivity”. For “QVQLVESGGGLVQAGGSLRLSCAASGRPFKPYAMGWYRPAPGKERELVAVISSTGSTKYADSVKGRFTISRDNAKNTVYLQMNSLKPEDTAVYYCNAGSLYSDRWVKRKYDYSGQGTQVTVSS”, the “polyreactivity (PSR sort gate)” value was “high polyreactivity”. In the case of “QVQLVESGGGLVQAGGSLRLSCAASGFNFTRYAMGWYRQAPGKERELVAAISSGSRTYYADSVKGRFTISRDNAKNTVYLQMISLKPEDTAVYYCAAPVYTYYGHYDSWGQGTQVTVSS”, the “polyreactivity (PSR sort gate)” value is reported as “high polyreactivity”.
